These results are taken from patent publication CN112125972A (SINOCELLTECH LTD, dated 2020).

Common to all, as to assay: double-antibody sandwich ELISA, R001 as capture and HRP-R001 as detection, mixture of HPV types
Assay [1] has as its target T1, HPV18 VLP (Human papillomavirus type 18, UniProt P06794 62-568).
T1 construct: also called HPV18完整VLP蛋白
T1 sequence: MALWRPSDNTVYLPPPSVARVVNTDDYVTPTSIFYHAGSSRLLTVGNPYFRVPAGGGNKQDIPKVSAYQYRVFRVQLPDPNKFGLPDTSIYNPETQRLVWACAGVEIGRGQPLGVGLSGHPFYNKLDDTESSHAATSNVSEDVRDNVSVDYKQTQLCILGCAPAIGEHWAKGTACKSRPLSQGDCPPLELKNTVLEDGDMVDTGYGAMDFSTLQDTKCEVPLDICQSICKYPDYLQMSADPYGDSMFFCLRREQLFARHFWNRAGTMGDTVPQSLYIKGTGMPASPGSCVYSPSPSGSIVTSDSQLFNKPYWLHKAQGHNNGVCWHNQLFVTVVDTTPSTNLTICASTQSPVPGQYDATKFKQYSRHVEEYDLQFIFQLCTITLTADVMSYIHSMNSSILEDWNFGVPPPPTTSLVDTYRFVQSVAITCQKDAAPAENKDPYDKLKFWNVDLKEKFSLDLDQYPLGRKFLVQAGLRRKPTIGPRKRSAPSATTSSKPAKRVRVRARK

For assay [2], the target named is T2, HPV35 VLP (Human papillomavirus type 35, UniProt P27232 1-502).
T2 construct: also called HPV35完整VLP蛋白
T2 sequence: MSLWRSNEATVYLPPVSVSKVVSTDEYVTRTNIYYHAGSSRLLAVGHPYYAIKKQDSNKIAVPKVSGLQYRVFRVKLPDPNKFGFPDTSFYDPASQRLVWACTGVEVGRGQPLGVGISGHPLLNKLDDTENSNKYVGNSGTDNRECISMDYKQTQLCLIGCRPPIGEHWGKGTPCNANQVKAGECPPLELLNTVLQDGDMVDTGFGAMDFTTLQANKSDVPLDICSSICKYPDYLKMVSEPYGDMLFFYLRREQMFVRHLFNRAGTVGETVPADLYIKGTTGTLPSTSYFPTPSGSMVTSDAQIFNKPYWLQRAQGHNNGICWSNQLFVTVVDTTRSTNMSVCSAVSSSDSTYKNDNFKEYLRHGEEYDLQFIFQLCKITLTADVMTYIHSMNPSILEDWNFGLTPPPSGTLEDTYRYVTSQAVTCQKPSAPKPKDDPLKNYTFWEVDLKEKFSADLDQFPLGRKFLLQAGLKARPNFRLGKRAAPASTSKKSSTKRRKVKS

For assay [3], the target named is T3, HPV51 VLP (Human papillomavirus type 51, UniProt P26536 1-504).
T3 construct: also called HPV51完整VLP蛋白
T3 sequence: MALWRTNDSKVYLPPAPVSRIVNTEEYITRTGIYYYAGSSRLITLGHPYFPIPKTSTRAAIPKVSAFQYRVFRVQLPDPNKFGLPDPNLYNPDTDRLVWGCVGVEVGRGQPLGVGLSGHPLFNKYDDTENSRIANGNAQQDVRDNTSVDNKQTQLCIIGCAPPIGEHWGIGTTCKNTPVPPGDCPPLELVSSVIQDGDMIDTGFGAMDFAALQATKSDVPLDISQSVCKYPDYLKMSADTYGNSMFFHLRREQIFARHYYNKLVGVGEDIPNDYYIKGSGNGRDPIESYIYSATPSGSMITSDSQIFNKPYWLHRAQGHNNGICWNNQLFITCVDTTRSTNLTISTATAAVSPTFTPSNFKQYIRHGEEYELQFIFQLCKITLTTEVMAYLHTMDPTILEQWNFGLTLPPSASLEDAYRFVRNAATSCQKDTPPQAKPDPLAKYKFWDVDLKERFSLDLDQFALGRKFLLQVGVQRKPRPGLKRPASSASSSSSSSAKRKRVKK

Assay [4] deals with T4, HPV31 VLP (Human papillomavirus type 31, UniProt P17388 1-504).
T4 construct: also called HPV31完整VLP蛋白
T4 sequence: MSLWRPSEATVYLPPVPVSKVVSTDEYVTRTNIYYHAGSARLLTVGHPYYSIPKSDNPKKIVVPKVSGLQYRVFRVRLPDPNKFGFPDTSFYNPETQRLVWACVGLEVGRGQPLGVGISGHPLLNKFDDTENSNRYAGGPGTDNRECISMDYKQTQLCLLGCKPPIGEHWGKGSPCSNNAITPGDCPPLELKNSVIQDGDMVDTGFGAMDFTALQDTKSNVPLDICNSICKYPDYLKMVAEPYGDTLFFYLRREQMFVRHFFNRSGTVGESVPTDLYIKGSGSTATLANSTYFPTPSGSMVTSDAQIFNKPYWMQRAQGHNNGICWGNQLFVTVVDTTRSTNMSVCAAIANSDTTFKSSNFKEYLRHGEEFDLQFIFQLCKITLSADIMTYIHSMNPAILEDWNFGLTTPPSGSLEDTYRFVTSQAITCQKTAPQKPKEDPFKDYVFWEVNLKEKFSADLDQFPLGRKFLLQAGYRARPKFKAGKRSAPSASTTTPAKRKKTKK

For assay [5], the target named is T5, HPV39 VLP (Human papillomavirus type 39, UniProt P24838 1-505).
T5 construct: also called HPV39完整VLP蛋白
T5 sequence: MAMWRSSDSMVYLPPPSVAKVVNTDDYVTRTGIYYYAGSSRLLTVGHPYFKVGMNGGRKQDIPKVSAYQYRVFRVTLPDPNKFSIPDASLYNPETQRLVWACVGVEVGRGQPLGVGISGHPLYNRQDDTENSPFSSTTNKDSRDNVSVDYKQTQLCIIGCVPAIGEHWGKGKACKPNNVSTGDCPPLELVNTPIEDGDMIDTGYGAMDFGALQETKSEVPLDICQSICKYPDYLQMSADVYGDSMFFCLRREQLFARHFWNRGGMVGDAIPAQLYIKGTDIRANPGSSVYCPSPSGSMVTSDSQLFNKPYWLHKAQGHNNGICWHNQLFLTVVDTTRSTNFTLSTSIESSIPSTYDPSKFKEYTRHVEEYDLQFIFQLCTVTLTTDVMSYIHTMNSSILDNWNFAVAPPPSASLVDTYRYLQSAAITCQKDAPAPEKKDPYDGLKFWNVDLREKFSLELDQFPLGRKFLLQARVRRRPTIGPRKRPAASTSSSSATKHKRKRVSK

B1: HPV 16 R001 (antibody, V domains shown)
VH: QSVKESEGRLVTPGTPLTLTCTASGFTMSRYHMTWVRQAPGKGLEWIGIIYARNSDTYYANWAKGRFTISKTSTTVDLKITSPTIEDTATYFCARVDSDSSGAFDRLDLWGQGTLVTVSS
VL: DPMLTQTAASVEVAVGGTVTIKCQASQSIGGYLSWYQQKPGQRPKLLIYRASTLASGVPSRFKGSGSGTEYTLTFSGVECADAAAYYCQQGYTSSDINNAFGGGTEVVVK
notes: An HRP-labelled form served as detection antibody in the sandwich ELISA; also called HPV16.001; 单克隆抗体HPV 16 R001
With B1, the binding result in assay [1], in assay [2], in assay [3], in assay [4] and in assay [5] was “no binding (tested: 50ng/mL，25ng/mL，12.5ng/mL)” in each case.
